Literature values in publication PMC12455926.

Target: AXL (Homo sapiens) (UniProt P30530)

## Spike protein NTD (from UniProt P0DTC2)
  Kd: 882 nM
